Experimental data published in the supplement of paper PMC10126150.
± gives the standard deviation of the averaged measurements.

Tested on: ATP
Test: switch fluorescence ratio, 500 uM ATP over buffer (Cy3 cluster intensity, sum of 5 cycles each) (fold (ratio)); higher = stronger signal-on switching upon ATP binding; sequences stand for … in TCGTCGGCAGCGTCAGATGTGTATAAGAGACAGTTTTTTTTTTTTTTTTTTTTTTTTT…TC
Details: aptamer strand: ATP DNA aptamer (quencher-CACCTGGGGGAGTATTGCGGAGGAAGG + anchor), 100 nM annealed; ATP concentration: 500 uM
How it was run: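 The quencher-labelled ATP aptamer, at 100 nM, was annealed to Cy3-labelled switching-strand clusters on a modified Illumina MiSeq flow-cell. The clusters were imaged in selection buffer, then after 15 min with 500 uM ATP at 22 °C, and this buffer/ATP cycle ran five times with NaOH stripping and re-annealing between runs. Per-cluster fluorescence ratios, summed target-cycle over summed buffer-cycle Cy3 intensity, were averaged per switch-domain sequence. Clusters outside 100-1000 RFU were excluded.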
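Further: ATP exposure 15 min at 22 °C before imaging.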

Sequence	switch fluorescence ratio
TCAGTTATGG	1.001 ± 0.0086
TCAGTTCGGC	0.976 ± 0.037
TCAGTTTAGA	1 ± 0.011
TCAGTTTTGT	1.012 ± 0.0094
TCATAAAGTT	0.994 ± 0.034
TCATACTGTG	1.03 ± 0.014
TCATAGAGG	0.9822 ± 0.0058
TCATAGGGGC	1.04 ± 0.012
TCATATTTAA	1.015 ± 0.0043
TCATCAGGGC	1.08 ± 0.034
TCATCATTCG	0.9668 ± 0.0052
TCATCGGCAT	4.07 ± 1.3
TCATCGGGGA	1.01 ± 0.028
TCATCTATAT	1.03 ± 0.028
TCATCTGTGC	1.07 ± 0.029
TCATGAACAG	0.993 ± 0.014
TCATGACGT	0.9921 ± 0.0037
TCATGAGTTG	0.963 ± 0.018
TCATGCACTG	1.05 ± 0.035
TCATGCGAAA	1.1 ± 0.013
TCATGCGGGC	1.02 ± 0.038
TCATGCTTGA	0.974 ± 0.032
TCATGCTTTT	1.03 ± 0.019
TCATGGCGTG	0.988 ± 0.011
TCATGGTATG	0.997 ± 0.024
TCATGTAAGT	0.997 ± 0.02

Sequence	switch fluorescence ratio
TCATGTAGGG	0.989 ± 0.015
TCATGTCGGG	1.005 ± 0.01
TCATGTCGGT	0.979 ± 0.017
TCATGTTCGT	1.08 ± 0.15
TCATGTTGAT	1 ± 0.071
TCATGTTGTG	1.01 ± 0.02
TCATGTTTCG	1 ± 0.031
TCATTATGCA	1.04 ± 0.018
TCATTATGGA	0.989 ± 0.014
TCATTCATGG	0.977 ± 0.011
TCATTGAGCG	0.981 ± 0.04
TCATTGAGGA	0.992 ± 0.014
TCATTGTGGG	0.9799 ± 0.00084
TCATTGTGGT	0.988 ± 0.018
TCATTGTTCG	0.958 ± 0.0035
TCATTTTTAC	1.049 ± 0.0072
TCCAAACCCC	1.12 ± 0.046
TCCAACATTT	1 ± 0.046
TCCAATTTTT	0.986 ± 0.024
TCCACATTCC	1.57 ± 0.35
TCCAGAGTGC	1.017 ± 0.0033
TCCAGCGGGG	1.01 ± 0.047
TCCAGCTGA	2.688 ± 0.015
TCCAGGGGAG	1.13 ± 0.032
TCCAGGGGTG	1.65 ± 0.025
TCCAGGGTGC	1.93 ± 0.37

Sequence	switch fluorescence ratio
TCCAGGTGAC	4.19 ± 0.38
TCCAGTATTA	0.9945 ± 0.0042
TCCAGTGGAA	0.989 ± 0.044
TCCATAATAG	1.16 ± 0.028
TCCATACCAC	1.03 ± 0.032
TCCATCAGCT	1.1 ± 0.025
TCCATGTTCT	0.992 ± 0.034
TCCATTGGTG	1.2 ± 0.025
TCCCAAAGGG	1.63 ± 0.91
TCCCAATGCT	4.02 ± 0.55
TCCCCAGGGG	1.1 ± 0.11
TCCCCCCCTT	1.41 ± 0.58
TCCCCGTTTC	1.65 ± 0.75
TCCCGAATTT	1.02 ± 0.016
TCCCGCGGCG	1.08 ± 0.041
TCCCGGGGGA	2 ± 1.2
TCCCGGGTCT	0.992 ± 0.029
TCCCGGGTTT	1.1 ± 0.14
TCCCGTTTTT	1.02 ± 0.065
TCCCTAAAAG	0.9896 ± 0.0049
TCCCTCTCCG	1.27 ± 0.36
TCCCTTTAGT	1.01 ± 0.024
TCCGAACTCG	1.22 ± 0.019
TCCGACTCTT	1.53 ± 0.72
TCCGACTGGT	1.127 ± 0.0014
TCCGCGGCTT	2.12 ± 1.5

Sequence	switch fluorescence ratio
TCCGCGGGTG	1.61 ± 0.82
TCCGCGTACG	2.75 ± 0.056
TCCGGAATGG	4.16 ± 0.47
TCCGGAGTTT	2.55 ± 0.38
TCCGGATATA	1.065 ± 0.004
TCCGGCAAGT	2.17 ± 0.13
TCCGGCTACC	1.38 ± 0.039
TCCGGGAAGC	1.24 ± 0.035
TCCGGGATAT	2.23 ± 0.98
TCCGGGCGGA	1.01 ± 0.021
TCCGGGGGAC	1.52 ± 0.59
TCCGGGGGGT	1.05 ± 0.025
TCCGGGGTAA	1.37 ± 0.51
TCCGGGGTTT	1.02 ± 0.056
TCCGGGTTTG	1.02 ± 0.037
TCCGGTTAGT	1.04 ± 0.015
TCCGTATTTT	1.29 ± 0.41
TCCGTCAATG	1.63 ± 0.07
TCCGTTGTGG	0.991 ± 0.037
TCCGTTTGTG	1 ± 0.024
TCCTAAATGT	0.976 ± 0.048
TCCTACGTTT	1.75 ± 0.86
TCCTAGCGCC	2.02 ± 0.2
TCCTAGGGGA	1.03 ± 0.0033
TCCTATAAAA	0.987 ± 0.032
TCCTCGGGGC	1.6 ± 0.095

Sequence	switch fluorescence ratio
TCCTGACGTC	1.043 ± 0.0039
TCCTGATTAT	0.989 ± 0.011
TCCTGCAAGG	1.07 ± 0.05
TCCTGGCAAA	1.59 ± 0.6
TCCTGGGGGC	1.02 ± 0.058
TCCTGGTTTT	0.996 ± 0.046
TCCTGTTCCT	1.02 ± 0.062
TCCTTGACGA	1.06 ± 0.013
TCCTTGCTTT	1.1 ± 0.025
TCCTTGGGGT	1.73 ± 0.97
TCCTTTGCGT	1.55 ± 0.39
TCCTTTTAAT	1.045 ± 0.0012
TCCTTTTGT	1.02 ± 0.068
TCCTTTTGTT	1.06 ± 0.15
TCCTTTTTGC	1.07 ± 0.069
TCCTTTTTGT	1.41 ± 0.54
TCGAAAATCG	1 ± 0.049
TCGAAAGAGA	1.02 ± 0.025
TCGAAAGCTT	1.34 ± 0.42
TCGAAAGTCT	0.995 ± 0.012
TCGAAATCAC	1.32 ± 0.046
TCGAACTCTT	1.03 ± 0.021
TCGAACTGGG	1.007 ± 0.0091
TCGAAGTTGT	1.01 ± 0.022
TCGAATATTG	0.9849 ± 0.004
TCGAATGGGC	0.98 ± 0.037

Sequence	switch fluorescence ratio
TCGAATGGGT	1.02 ± 0.013
TCGAATTCGC	1.0071 ± 8.5e-05
TCGACATCGG	1.016 ± 0.0061
TCGACGCGCC	5.12 ± 0.52
TCGACGGGCG	1.03 ± 0.02
TCGACTATTT	1.04 ± 0.046
TCGAGAAAGG	0.98962 ± 0.00052
TCGAGCCATA	1.08 ± 0.046
TCGAGCGCAC	2.54 ± 0.34
TCGAGCTGAA	1.018 ± 0.0016
TCGAGGGGTC	1.06 ± 0.075
TCGAGGGGTG	1.01 ± 0.039
TCGAGTCTTT	0.998 ± 0.015
TCGAGTTTGT	1.01 ± 0.022
TCGAGTTTTT	0.996 ± 0.02
TCGATAGTTC	1.03 ± 0.028
TCGATCAACG	0.9909 ± 0.0013
TCGATCTACT	1.06 ± 0.024
TCGATGATCG	0.963 ± 0.046
TCGATGATGG	1.05 ± 0.013
TCGATTAGGG	1.04 ± 0.017
TCGATTATTT	1.016 ± 0.0059
TCGATTGGCG	1.07 ± 0.1
